# Where two headings read alike, the source gives them in different places.
# B1: EGF: positive control (PC-1 in Tables 4, 6, 8) in the radiation damage tests (protein, UniProt P01133 23-1207, looked up)
# Pro-epidermal growth factor: PQHWSCPEGTLAGNGNSTCVGPAPFLIFSHGNSIFRIDTEGTNYEQLVVDAGVSVIMDFHYNEKRIYWVDLERQLLQRVFLNGSRQERVCNIEKNVSGMAINWINEEVIWSNQQEGIITVTDMKGNNSHILLSALKYPANVAVDPVERFIFWSSEVAGSLYRADLDGVGVKALLETSEKITAVSLDVLDKRLFWIQYNREGSNSLICSCDYDGGSVHISKHPTQHNLFAMSLFGDRIFYSTWKMKTIWIANKHTGKDMVRINLHSSFVPLGELKVVHPLAQPKAEDDTWEPEQKLCKLRKGNCSSTVCGQDLQSHLCMCAEGYALSRDRKYCEDVNECAFWNHGCTLGCKNTPGSYYCTCPVGFVLLPDGKRCHQLVSCPRNVSECSHDCVLTSEGPLCFCPEGSVLERDGKTCSGCSSPDNGGCSQLCVPLSPVSWECDCFPGYDLQLDEKSCAASGPQPFLLFANSQDIRHMHFDGTDYGTLLSQQMGMVYALDHDPVENKIYFAHTALKWIERANMDGSQRERLIEEGVDVPEGLAVDWIGRRFYWTDRGKSLIGRSDLNGKRSKIITKENISQPRGIAVHPMAKRLFWTDTGINPRIESSSLQGLGRLVIASSDLIWPSGITIDFLTDKLYWCDAKQSVIEMANLDGSKRRRLTQNDVGHPFAVAVFEDYVWFSDWAMPSVMRVNKRTGKDRVRLQGSMLKPSSLVVVHPLAKPGADPCLYQNGGCEHICKKRLGTAWCSCREGFMKASDGKTCLALDGHQLLAGGEVDLKNQVTPLDILSKTRVSEDNITESQHMLVAEIMVSDQDDCAPVGCSMYARCISEGEDATCQCLKGFAGDGKLCSDIDECEMGVPVCPPASSKCINTEGGYVCRCSEGYQGDGIHCLDIDECQLGEHSCGENASCTNTEGGYTCMCAGRLSEPGLICPDSTPPPHLREDDHHYSVRNSDSECPLSHDGYCLHDGVCMYIEALDKYACNCVVGYIGERCQYRDLKWWELRHAGHGQQQKVIVVAVCVVVLVMLLLLSLWGAHYYRTQKLLSKNPKNPYEESSRDVRSRRPADTEDGMSSCPQPWFVVIKEHQDLKNGGQPVAGEDGQAADGSMQPTSWRQEPQLCGMGTEQGCWIPVSSDKGSCPQVMERSFHMPSYGTQTLEGGVEKPHSLLSANPLWQQRALDPPHQMELTQ
# modifications: Pro-epidermal growth factor
# Tests used:
# Type in all cases: cell-based, human
# [1] = test system: oral (buccal) mucosa cells (TR146)
# Procedure: The protective effect of the recombinant lectin on survival of TR146 cells against 5-FU induced damage was determined using following calculations:
# The viability of cells was determined as: % Cell viability=(100−% Cytotoxicity); • where, the percentage cytotoxicity corresponding to each treatment was calculated as: % Cytotoxicity=[(R−X)/R]*100, wherein X=Absorbance of cells treated with 5-FU or radiation damage/TI+5-FU, R=Absorbance of Control cells (Untreated) and Percentage protection was calculated as:
# {(Absorbance of TI+5-FU or radiation)−(Absorbance of 5-FU or radiation alone)/(Absorbance of Untreated)−(Absorbance of 5-FU alone)}*100
# [2] = test system: oral (buccal) mucosa cells (TR146); assay: Restoration of mitochondrial membrane potential (JC-1) against radiation induced damage; conditions: for MMP: red/green JC-1 fluorescence ratio
# Procedure: (§1) Oral buccal mucosal cells (TR146) were incubated overnight in 5% CO2 incubator at 37° C. for 24 h. […] After 24 h of treatment, cells were exposed to damage (5-FU 5 mM) for 1.25 h for chemotherapy induced inflammation and exposed to gamma radiation (3.5 kGy) using Cobalt 60 for radiation induced inflammation. After the exposure, the anti-apoptotic effect of SEQ ID NO 2 was determined by restoration of mitochondrial membrane depolarization by JC-1 staining and reduction in apoptotic cell populations (Annexin positive and subG0/G1 cells in cell cycle analysis).
# After incubation, the supernatants were discarded and 100 μl of JC1-dye solution (prepared by diluting 1 mM DMSO stock into 10 μM in 1×PBS) was added to each well. The cells were then incubated with the dye in CO2 incubator at 37° C. for 15 min, after which the supernatant was removed, and the cells were washed twice with 1×PBS. 100 μl of 1×PBS was finally added to each well. Red fluorescence (excitation 550 nm, emission 600 nm) and green fluorescence (excitation 485 nm, emission 535 nm) were measured using Biotek Synergy HT plate reader. The mitochondrial membrane potential (Δψm) was calculated as the ratio of intensity of red fluorescence to intensity of green fluorescence.
# The percentage increase/restoration in mitochondrial membrane potential (MMP) was calculated as: % Increase=[(R−X)/R]*100 • Where, X=Δψm corresponding to TI+5-FU treated cells or TI+radiation treated cells; R=Δψm corresponding to control cells (FU damaged or Radiation damaged alone)
# [3] = test system: oral (buccal) mucosa cells (TR146); assay: Annexin positive cell population against radiation damage; conditions: for % Apoptotic cells: Annexin positive
# Procedure: as §1
# To determine the reduction in apoptotic cell populations using annexin-v staining cells were gently harvested into pre-labeled sterile centrifuge tubes and centrifuged at 300×g for 5-7 min. Supernatant were discarded and the pellet was resuspended in 200 μl of fresh culture medium. 100 μl of cell suspension was transferred into pre-labeled sterile centrifuge tubes. 100 μl of Annexin-V reagent was added to each tube and incubated for 30 min at RT in dark. Cells stained for Annexin-V were then transferred into 96-well plates and acquired on flow cytometer (Guava technologies). Percentage of Annexin-V positive cells was calculated as follows:
# ={[% Annexin positive cells in 5-FU or radiation alone]−[% Annexin positive cells in (TI+5-FU) or (TI+radiation)]/% Annexin positive cells in 5-FU or radiation alone}*100
# [4] = test system: oral (buccal) mucosa cells (TR146); assay: Sub(G0/G1) cell population (cell cycle) against radiation induced damage; conditions: for % Decrease in Apoptotic cells (with respect to control): Sub G0/G1
# Procedure: To determine the effect of test item on cell cycle, oral buccal mucosal cells (TR146) were incubated overnight in 5% CO2 incubator at 37° C. for 24 h. […] After 24 h of treatment, cells were exposed to chemotherapy (5-FU 10 mM) for 24 h or radiotherapy (Gamma radiation (3.5 kGy) using Cobalt 60) for 2 h.
# After incubation, cells were harvested by trypsinization and processed for Cell cycle assay. Accordingly, cells were harvested into prelabeled centrifuge tubes and centrifuged at 450 g for 5 min at room temperature (RT, low brake). The supernatants were removed carefully and discarded. 1 ml of 1× phosphate buffer saline (PBS) was added to the pellet and resuspended gently to make homogenous suspension. Cells were centrifuged at 450 g for 5 min, RT (low brake). The supernatant was carefully removed leaving behind approx. 100 μl of PBS. Cells were resuspended gently yet thoroughly in residual PBS. Ice-cold 70% ethanol (100 μl) was added drop-wise into cells in each tube while vortexing at low speed (fixation step). Cells stored at 4° C. for 24 h were centrifuged at 450 g for 5 min, RT (low brake). The supernatant was carefully removed without touching the pellet and discarded. 1 ml of 1×PBS was added into pellet and resuspended gently. Cells were incubated for 1 minute at RT. Cells were centrifuged at 450 g for 5 min, RT (low brake). The supernatant was removed carefully without touching the pellet, leaving behind approx. 20-50 μl of PBS. 200 μl of cell cycle reagent was added into each tube. Cells were resuspended gently and mixed. Cells were incubated for 30 min at RT in the dark. The stained samples were transferred into 96-well plates and acquired on flow cytometer (Guava technologies). Percentage of cells in Sub (G0/G1) phase were determined based on the concept that cell cycle reagent contains PI stain, which stains DNA of cells in different phases of cell cycle; Sub (G0/G1), G1, S, G2 and M. Cells in Sub (G0/G1) phase correspond to apoptotic cells. Percent inhibition in apoptotic cells is determined by the formula:
# =[(% Sub(G0/G1) cells in 5-FU/radiation alone)−(% Sub(G0/G1) cells in TI+5-FU/radiation)/% Sub(G0/G1) cells in 5-FU/radiation alone]*100
# [5] = 100 ng/ml + Radiation (3.5 kGy)
# [6] = 200 ng/ml + Radiation (3.5 kGy)
molecule,measurement,setting,value
B1,% Protection,[1]; 10 ng/ml + Radiation (3.5 kGy),18%
same,% Protection,[1]; 50 ng/ml + Radiation (3.5 kGy),44.4%
same,% Protection,[1]; [5],46.5%
same,% Protection,[1]; [6],8.8%
same,% Increase in MMP (with respect to control),[2]; 50 ng/ml + Radiation (3.5 kGy),41.8%
same,MMP,[2]; 50 ng/ml + Radiation (3.5 kGy),6.53
same,% Increase in MMP (with respect to control),[2]; [5],33.4%
same,MMP,[2]; [5],6.14
same,% Increase in MMP (with respect to control),[2]; [6],18.8%
same,MMP,[2]; [6],5.47
same,% Decrease in Apoptotic cells (with respect to radiation control),[3]; 50 ng/ml + Radiation (3.5 kGy),0%
same,% Apoptotic cells,[3]; 50 ng/ml + Radiation (3.5 kGy),13.7%
same,% Decrease in Apoptotic cells (with respect to radiation control),[3]; [5],35.9%
same,% Apoptotic cells,[3]; [5],8.8%
same,% Decrease in Apoptotic cells (with respect to radiation control),[3]; [6],−1.5%
same,% Apoptotic cells,[3]; [6],13.9%
same,% Apoptotic cells (Sub G0/G1),[4]; 50 ng/ml + Radiation (3.5 kGy),10.8%
same,% Decrease in Apoptotic cells (with respect to control),[4]; 50 ng/ml + Radiation (3.5 kGy),69.5%
same,% Apoptotic cells (Sub G0/G1),[4]; [5],16.4%
same,% Decrease in Apoptotic cells (with respect to control),[4]; [5],53.5%
same,% Apoptotic cells (Sub G0/G1),[4]; [6],30.5%
same,% Decrease in Apoptotic cells (with respect to control),[4]; [6],13.7%

# Source: patent publication US20250064890A1, “PROTEIN COMPOSITIONS FOR THE TREATMENT OF INFLAMMATORY DISEASES” (Unichem Laboratories Limited, priority 2021, published 2025)
